In data set [1] the target is T1, Phe3H (phenylalanine 3-hydroxylase) (Streptomyces coeruleorubidus, UniProt F5BFC8).
T1 construct: gene pacX; purified Phe3H
As to the kind of experiment: steady-state inhibition kinetics of hydroxylation. It is filed as biochemical. An excerpt:
steady-state inhibition kinetics of hydroxylation on […]

Substrate in data set [2]: CC1Nc2nc(N)[nH]c(=O)c2NC1C
As to the kind of experiment: purified protein. Type of data set: biochemical, Streptomyces coeruleorubidus. Particulars: pterin varied, fixed L-Phe, pH 8, 28 °C, varied: cofactor.

Substrate in data set [3]: NC(Cc1ccc(F)cc1)C(=O)O
As to the kind of experiment: purified protein. To be noted: fixed 6MPH4 cofactor, racemic substrate, pH 8, 28 °C. It is filed as biochemical, Streptomyces coeruleorubidus.

Substrate in data set [4]: NC(Cc1ccccc1F)C(=O)O
The data set is described as follows: purified protein. Type of data set: biochemical, Streptomyces coeruleorubidus. To be noted: fixed 6MPH4 cofactor, racemic substrate, pH 8, 28 °C.

Substrate in data set [5]: N[C@@H](Cc1ccccc1)C(=O)O
As to the kind of experiment: purified protein. It is filed as biochemical, Streptomyces coeruleorubidus.

Where [6] appears, read: fixed 6MPH4 cofactor, labelled compound, pH 8, 28 °C.
Setting [7] is: fixed 6MPH4 cofactor, pH 8, 28 °C.
Where [8] appears, read: pterin cofactor (6MPH4 for wild type), labelled compound.
The mark [9] stands for this setting: pterin cofactor (6MPH4 for wild type), optimised assay conditions.

Substitutions are numbered along the chain they refer to. Names and notes keep the numbering of the source.

For orientation: Ki means a measure of affinity in units of concentration, obtained from inhibition or displacement. As for `NC(Cc1cccc(F)c1)C(=O)O` (racemic) [3F‐Phe], the Ki in data set [1] was found to be 800 µM.

B1: Phe3H (phenylalanine 3-hydroxylase) (Streptomyces coeruleorubidus) (protein)
chain: MQGPHAQMTDAAYEIRRSEIAALSTDLAPEDPIPVVEYTEWEHEVWRTVCVDLTARHRTDAAAEYLESAEQLAVPLDHVPQLRDVSGRLGSISGFTFQSAPALVPLREFCGGLANSVFHSTQYLRHPRSPFYTEDPDLLHDLVGHGNVLASDRFARLYRLAGNAAARVHSTEALQFIGKVFWFTLECGVVRERGERKAYGATLVSSYGELDHFRSADFRPLDIKSLADVEYDISTYQPILFEADSMDEVEDTVGSFWDTCDDDSIAALLGGTSRSVTPH
notes: purified Phe3H
For orientation: Km means the substrate concentration at which the rate is half of its maximum. One may read the kcat as the maximal rate divided by the concentration of active sites. As a reminder, the kcat/Km is the turnover number divided by the Michaelis constant. B1: the Km in the data set “purified protein [2]” stood at 0.098 ± 0.01 mM; in the data set “purified protein [3]”, 0.23 ± 0.06 mM; in “purified protein [4]” it was 1.9 ± 0.1 mM; in the data set “purified protein [5]” (setting [6]) it was 0.54 ± 0.07 mM; in “purified protein [5]” (setting [7]), 0.40 ± 0.06 mM. The kcat in the data set “purified protein [2]” worked out at 1.3 ± 0.05 s⁻¹; in the data set “purified protein [3]”, 0.233 ± 0.00833 s⁻¹; in the data set “purified protein [4]” it was 0.167 ± 0.00333 s⁻¹; in the data set “purified protein [5]” (setting [6]), 0.567 ± 0.0167 s⁻¹; in “purified protein [5]” (setting [7]), 0.633 ± 0.0333 s⁻¹. Besides, the kcat/Km is 13300 ± 650 M⁻¹ s⁻¹ in the data set “purified protein [2]”; 1050 ± 107 M⁻¹ s⁻¹ in “purified protein [3]”; 88.3 ± 2 M⁻¹ s⁻¹ in “purified protein [4]”; 1050 ± 48.3 M⁻¹ s⁻¹ in the data set “purified protein [5]” (setting [6]); 1580 ± 118 M⁻¹ s⁻¹ in “purified protein [5]” (setting [7]).

B2: Phe3H (phenylalanine 3-hydroxylase) (Streptomyces coeruleorubidus; C187A) (protein)
chain: B1 chain with C187A
notes: purified Phe3H
Consider B2, for which, in the data set “purified protein [5]” (setting [8]), the Km is 0.13 ± 0.03 mM and the kcat came out at 0.217 ± 0.00667 s⁻¹. Besides, in the data set “purified protein [5]” (setting [9]), the Km came to 0.1 ± 0.01 mM and the kcat worked out at 0.283 ± 0.005 s⁻¹.

B3: Phe3H (phenylalanine 3-hydroxylase) (Streptomyces coeruleorubidus; T202S) (protein)
chain: B1 chain with T202S
notes: purified Phe3H
With B3, the Km in “purified protein [5]” (setting [8]) is 0.4 ± 0.3 mM; in “purified protein [5]” (setting [9]), 0.5 ± 0.2 mM. Also, the kcat turned out to be 0.217 ± 0.0667 s⁻¹ in the data set “purified protein [5]” (setting [8]) and 0.433 ± 0.0833 s⁻¹ in the data set “purified protein [5]” (setting [9]).
